According to patent publication US20120094914A1 (KYUSHU UNIVERSITY NATIONAL UNIVERSITY, published 2012):

Target: T1, biotinylated HLA-G (monomer) refolded with human beta2 microglobulin and peptide … (human, biotinylated with BirA; site not stated)
T1 construct: also called wild-type HLA-G
Test: SPR (BIAcore 2000), equilibrium response against LIR2 concentration, fitted binding isotherm; biotinylated HLA-G immobilised via streptavidin, BSA control cell subtracted
Protocol: Surface plasmon resonance experiment was conducted for HLA-G and LILRB2 (LIR2), using BIAcore 2000° (BIAcore AB, St Albans, England). First, streptavidin was covalently immobilized on a laboratory sensor chip CM5 (BIAcore AB), and the biotinylated HLA-G and the negative control BSA were immobilized via the streptavidin. Then, LILRB2 (LIR2) dissolved in the running buffer HBS-EP (10 mM HEPES, pH 7.5, 150 mM sodium chloride, 3.4 mM EDTA, 0.005% Surfactant P20) was flown at 10 μL/min. The binding response at each concentration was calculated by subtracting the measured response in a control flow cell from the response in a sample flow cell. Binding constant (Kd) was obtained by Scatchard analysis, or by the nonlinear curve fitting of standard Langmuir binding isotherm, using ORIGIN 5 (Microcal Software).

Kd: 4.1 µM
B1: LILRB2 (LIR2) (receptor, UniProt Q8N423 24-220, looked up)
chain: GTIPKPTLWAEPDSVITQGSPVTLSCQGSLEAQEYRLYREKKSASWITRIRPELVKNGQFHIPSITWEHTGRYGCQYYSRARWSELSDPLVLVMTGAYPKPTLSAQPSPVVTSGGRVTLQCESQVAFGGFILCKEGEDEHPQCLNSQPHARGSSRAIFSVGPVSPNRRWSHRCYGYDLNSPYVWSSPSDLLELLVPG
notes: domain: ILT4D1D2; also called leukocyte Ig-like receptor B2; ILT4
